Where “and” joins values, the source holds several entries; their conditions need not be identical. Equal entries are not always repeated. Bridges are numbered along the chain shown (N, C = ends). [ ]: non-standard residue; d: D form. The star is where a group is joined. Chg = N[C@H](C(=O)O)C1CCCCC1; Lauroyl = CCCCCCCCCCCC(=O)*; NMeA = CN[C@@H](C)C(=O)O
B1: SEQ ID NO: 26 (peptide)
peptide: KMWFLISFWG
HELM: PEPTIDE1{K.M.W.F.L.I.S.F.W.G}$PEPTIDE1,PEPTIDE1,1:R3-10:R2$$$V2.0
SMILES: CC[C@H](C)[C@@H]1NC(=O)[C@H](CC(C)C)NC(=O)[C@H](Cc2ccccc2)NC(=O)[C@H](Cc2c[nH]c3ccccc23)NC(=O)[C@H](CCSC)NC(=O)[C@@H](N)CCCCNC(=O)CNC(=O)[C@H](Cc2c[nH]c3ccccc23)NC(=O)[C@H](Cc2ccccc2)NC(=O)[C@H](CO)NC1=O
B2: SEQ ID NO: 30 (peptide)
peptide: KMAESILDEHVQRVWG
HELM: PEPTIDE1{K.M.[meA].E.S.I.L.D.E.H.V.Q.R.V.W.G}$PEPTIDE1,PEPTIDE1,1:R3-16:R2$$$V2.0
SMILES: CC[C@H](C)[C@@H]1NC(=O)[C@H](CO)NC(=O)[C@H](CCC(=O)O)NC(=O)[C@H](C)N(C)C(=O)[C@H](CCSC)NC(=O)[C@@H](N)CCCCNC(=O)CNC(=O)[C@H](Cc2c[nH]c3ccccc23)NC(=O)[C@H](C(C)C)NC(=O)[C@H](CCCNC(=N)N)NC(=O)[C@H](CCC(N)=O)NC(=O)[C@H](C(C)C)NC(=O)[C@H](Cc2c[nH]cn2)NC(=O)[C@H](CCC(=O)O)NC(=O)[C@H](CC(=O)O)NC(=O)[C@H](CC(C)C)NC1=O
B3: SEQ ID NO: 24 (peptide)
peptide: KMSRMWFLISFWRG
HELM: PEPTIDE1{K.M.S.R.M.W.F.L.I.S.F.W.R.G}$PEPTIDE1,PEPTIDE1,1:R3-14:R2$$$V2.0
SMILES: CC[C@H](C)[C@@H]1NC(=O)[C@H](CC(C)C)NC(=O)[C@H](Cc2ccccc2)NC(=O)[C@H](Cc2c[nH]c3ccccc23)NC(=O)[C@H](CCSC)NC(=O)[C@H](CCCNC(=N)N)NC(=O)[C@H](CO)NC(=O)[C@H](CCSC)NC(=O)[C@@H](N)CCCCNC(=O)CNC(=O)[C@H](CCCNC(=N)N)NC(=O)[C@H](Cc2c[nH]c3ccccc23)NC(=O)[C@H](Cc2ccccc2)NC(=O)[C@H](CO)NC1=O
B4: SEQ ID NO: 28 (peptide)
peptide: KMSRMWFLISLWG
HELM: PEPTIDE1{K.M.S.R.M.W.F.L.I.S.L.W.G}$PEPTIDE1,PEPTIDE1,1:R3-13:R2$$$V2.0
SMILES: CC[C@H](C)[C@@H]1NC(=O)[C@H](CC(C)C)NC(=O)[C@H](Cc2ccccc2)NC(=O)[C@H](Cc2c[nH]c3ccccc23)NC(=O)[C@H](CCSC)NC(=O)[C@H](CCCNC(=N)N)NC(=O)[C@H](CO)NC(=O)[C@H](CCSC)NC(=O)[C@@H](N)CCCCNC(=O)CNC(=O)[C@H](Cc2c[nH]c3ccccc23)NC(=O)[C@H](CC(C)C)NC(=O)[C@H](CO)NC1=O
B5: SEQ ID NO: 29 (peptide)
peptide: KMPLAISWFEHIG
HELM: PEPTIDE1{K.M.P.L.[meA].I.S.W.F.E.H.I.G}$PEPTIDE1,PEPTIDE1,1:R3-13:R2$$$V2.0
SMILES: CC[C@H](C)[C@@H]1NC(=O)[C@H](Cc2c[nH]cn2)NC(=O)[C@H](CCC(=O)O)NC(=O)[C@H](Cc2ccccc2)NC(=O)[C@H](Cc2c[nH]c3ccccc23)NC(=O)[C@H](CO)NC(=O)[C@H]([C@@H](C)CC)NC(=O)[C@H](C)N(C)C(=O)[C@H](CC(C)C)NC(=O)[C@@H]2CCCN2C(=O)[C@H](CCSC)NC(=O)[C@@H](N)CCCCNC(=O)CNC1=O
B6: SEQ ID NO: 25 (peptide)
peptide: KMSRMWLLISFWG
HELM: PEPTIDE1{K.M.S.R.M.W.L.L.I.S.F.W.G}$PEPTIDE1,PEPTIDE1,1:R3-13:R2$$$V2.0
SMILES: CC[C@H](C)[C@@H]1NC(=O)[C@H](CC(C)C)NC(=O)[C@H](CC(C)C)NC(=O)[C@H](Cc2c[nH]c3ccccc23)NC(=O)[C@H](CCSC)NC(=O)[C@H](CCCNC(=N)N)NC(=O)[C@H](CO)NC(=O)[C@H](CCSC)NC(=O)[C@@H](N)CCCCNC(=O)CNC(=O)[C@H](Cc2c[nH]c3ccccc23)NC(=O)[C@H](Cc2ccccc2)NC(=O)[C@H](CO)NC1=O
B7: SEQ ID NO: 27 (peptide)
peptide: KMSRMWYLISFWG
HELM: PEPTIDE1{K.M.S.R.M.W.Y.L.I.S.F.W.G}$PEPTIDE1,PEPTIDE1,1:R3-13:R2$$$V2.0
SMILES: CC[C@H](C)[C@@H]1NC(=O)[C@H](CC(C)C)NC(=O)[C@H](Cc2ccc(O)cc2)NC(=O)[C@H](Cc2c[nH]c3ccccc23)NC(=O)[C@H](CCSC)NC(=O)[C@H](CCCNC(=N)N)NC(=O)[C@H](CO)NC(=O)[C@H](CCSC)NC(=O)[C@@H](N)CCCCNC(=O)CNC(=O)[C@H](Cc2c[nH]c3ccccc23)NC(=O)[C@H](Cc2ccccc2)NC(=O)[C@H](CO)NC1=O
B8: SEQ ID NO: 266 (H2N-Tcf4(7-51)-K-CONH2) (peptide)
peptide: H-GGGDDLGANDELISFKDEGEQEEKSSENSSAERDLADVKSSLVNEK-NH2
notes: Tcf4 residues 7-51 with an added C-terminal K, amidated
B9: SEQ ID NO: 471 (peptide)
peptide: Lauroyl-W[NMeA]QSILDEH[Chg]QKVWG-NH2
modifications: lactam 8-12; not fully specified; printed as Lauroyl-NH-W-NMeA-QSILDE*H-Chg-QK*VWG-NH2
B10: SEQ ID NO: 45 (peptide)
peptide: MWFLISFWAG
HELM: PEPTIDE1{M.W.F.L.I.S.F.W.[meA].G}$$$$V2.0
SMILES: CC[C@H](C)[C@H](NC(=O)[C@H](CC(C)C)NC(=O)[C@H](Cc1ccccc1)NC(=O)[C@H](Cc1c[nH]c2ccccc12)NC(=O)[C@@H](N)CCSC)C(=O)N[C@@H](CO)C(=O)N[C@@H](Cc1ccccc1)C(=O)N[C@@H](Cc1c[nH]c2ccccc12)C(=O)N(C)[C@@H](C)C(=O)NCC(=O)O
B11: SEQ ID NO: 467 (peptide)
peptide: Lauroyl-W[NMeA]QSILDEH[Chg]QKVW-NH2
modifications: lactam 8-12; not fully specified; printed as Lauroyl-NH-W-NMeA-QSILDE*H-Chg-QK*VW-NH2
B12: SEQ ID NO: 1 (peptide)
peptide: GWWESILDEHVQRVWG
HELM: PEPTIDE1{[CCCCCCCCCCCCCC(=O)[*:2]].G.W.[meW].E.S.I.L.D.E.H.V.Q.R.V.W.G}$$$$V2.0
SMILES: CCCCCCCCCCCCCC(=O)NCC(=O)N[C@@H](Cc1c[nH]c2ccccc12)C(=O)N(C)[C@@H](Cc1c[nH]c2ccccc12)C(=O)N[C@@H](CCC(=O)O)C(=O)N[C@@H](CO)C(=O)N[C@H](C(=O)N[C@@H](CC(C)C)C(=O)N[C@@H](CC(=O)O)C(=O)N[C@@H](CCC(=O)O)C(=O)N[C@@H](Cc1c[nH]cn1)C(=O)N[C@H](C(=O)N[C@@H](CCC(N)=O)C(=O)N[C@@H](CCCNC(=N)N)C(=O)N[C@H](C(=O)N[C@@H](Cc1c[nH]c2ccccc12)C(=O)NCC(=O)O)C(C)C)C(C)C)[C@@H](C)CC

target: T1, β-catenin (UniProt P35222 134-665, limits assumed, biotinylated in the SPR and plate assays); assay: SPR (Biacore)
T1 construct: also called beta catenin; biotinylated β-catenin
T1 sequence (looked up): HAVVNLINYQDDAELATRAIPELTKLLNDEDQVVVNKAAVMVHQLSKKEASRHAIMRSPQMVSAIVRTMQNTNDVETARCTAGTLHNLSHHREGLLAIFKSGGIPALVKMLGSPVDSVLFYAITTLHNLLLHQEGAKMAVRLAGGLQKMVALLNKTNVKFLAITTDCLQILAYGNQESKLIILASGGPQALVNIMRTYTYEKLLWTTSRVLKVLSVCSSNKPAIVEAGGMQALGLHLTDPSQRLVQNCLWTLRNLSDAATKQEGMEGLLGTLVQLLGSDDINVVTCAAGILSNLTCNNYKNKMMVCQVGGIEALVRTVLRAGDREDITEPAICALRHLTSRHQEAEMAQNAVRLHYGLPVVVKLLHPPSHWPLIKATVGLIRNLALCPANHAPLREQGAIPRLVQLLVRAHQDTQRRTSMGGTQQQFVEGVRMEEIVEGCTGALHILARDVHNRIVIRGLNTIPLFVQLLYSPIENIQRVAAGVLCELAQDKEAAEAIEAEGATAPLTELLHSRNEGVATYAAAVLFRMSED
Description: Biotinylated protein (beta catenin) was immobilized on a high-affinity streptavidin (SA) sensor chip (GE). Peptide at increasing concentrations was flowed over in HBS EP+ buffer at room temperature according to manufacturer's instructions. The maximum binding capacity of the surface (response at saturation) was calculated using the Biacore® system (GE) instructions and binding was measured at each concentration as a data point. The binding levels were determined over a range of analyte concentrations of at least from 20% to 80% saturation of the surface. On rates, off rates, and KD were calculated using Biacore® Insight Evaluation Software software (GE).

| Binder | Kd |
| --- | --- |
| H-MWFLISFWG-OH [SEQ ID NO: 17] | 314 nM |
| B1 | 110 nM |
| B2 | 123 nM |
| B3 | 270 nM |
| B4 | 803 nM |
| H-MWESILDEHVQRVWG-OH [SEQ ID NO: 22] | 1370 nM |
| H-MIRMWFLISFWG-OH [SEQ ID NO: 15] | 130 nM |
| B5 | 1030 nM |
| B6 | 112 nM |
| B7 | 515 nM |
| B8 | 58.2 nM |
| H-MWESILDEHMQRVWRG-OH [SEQ ID NO: 23] | 1590 nM |

target: T1, β-catenin; assay: competitive FP
Procedure, shortened: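 Competitive fluorescence polarization with inhibitor peptide serially diluted from 10 nM to 30 uM; polarization read at 470 nm excitation, 520 nm emission. Experiments performed three times.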

| Binder | Kd |
| --- | --- |
| H-MWFLISFWG-OH [SEQ ID NO: 17] | > 400 nM and ≤ 1000 nM |
| B9 | ≤ 400 nM |
| B10 | > 400 nM and ≤ 1000 nM |
| H-MWFLISFWEG-OH [SEQ ID NO: 47] | > 400 nM and ≤ 1000 nM |
| B3 | ≤ 400 nM |
| B11 | ≤ 400 nM |
| WPQSILDEHGQKVW (not fully specified; Lauroyl-NH-WPQSILDE*H-Chg-QK*VW-NH2) [SEQ ID NO: 469] | ≤ 400 nM |
| B5 | > 400 nM and ≤ 1000 nM |
| B8 | ≤ 400 nM |
| B12 | ≤ 400 nM |
| H-MWESILDEHMQRVWRG-OH [SEQ ID NO: 23] | ≤ 400 nM |

target: T1, β-catenin; assay: cell-based or functional assay

| Binder | Wnt Reporter EC50 | Proliferation IC50, Wnt dependent cells |
| --- | --- | --- |
| H-MWFLISFWG-OH [SEQ ID NO: 17] | ≤ 7500 nM |  |
| B9 | ≤ 7500 nM |  |
| B1 | > 7500 nM and ≤ 15000 nM |  |
| B10 | ≤ 7500 nM |  |
| H-MWFLISFWEG-OH [SEQ ID NO: 47] | ≤ 7500 nM |  |
| B2 | > 30000 nM |  |
| B3 | > 30000 nM |  |
| B4 | > 22500 nM and ≤ 30000 nM |  |
| H-MWESILDEHVQRVWG-OH [SEQ ID NO: 22] | > 30000 nM |  |
| B11 | ≤ 7500 nM |  |
| H-MIRMWFLISFWG-OH [SEQ ID NO: 15] | ≤ 7500 nM |  |
| WPQSILDEHGQKVW (not fully specified; Lauroyl-NH-WPQSILDE*H-Chg-QK*VW-NH2) [SEQ ID NO: 469] | ≤ 7500 nM |  |
| B5 | > 30000 nM |  |
| B6 | > 7500 nM and ≤ 15000 nM |  |
| B7 | > 30000 nM |  |
| B12 |  | 18500 nM |
| H-MWESILDEHMQRVWRG-OH [SEQ ID NO: 23] | > 30000 nM |  |

From patent US20260098059A1 (ENDOMET BIOSCIENCES, published 2026)
